{
  "source": "paper doi:10.1101/2020.12.18.423546",
  "about": "(bioRxiv, 2020)",
  "proteins": {"B1": {"name": "Bax (α2-α5) (human Bax residues D53 to K128 with C62S and C126S mutations) (domain or fragment)", "chain": "DASTKKLSESLKRIGDELDSNMELQRMIAAVDTDSPREVFFRVAADMFSDGNFNWGRVVALFYFASKLVLKALSTK"}},
  "key": {"cross-linking": {"target": "the molecule itself", "experiment": "cross-linking"}, "SEC-MALS": {"target": "the molecule itself", "experiment": "SEC-MALS"}},
  "data": [
    {"protein": "B1", "values": [
      {"measurement": "stoichiometry N", "setting": "cross-linking", "value": 2},
      {"measurement": "stoichiometry N", "setting": "SEC-MALS", "value": 4}
    ]}
  ]
}
